According to paper PMC7195465, “Molecular mechanism of light-driven sodium pumping” (Nature Communications, 2020):
Each block holds one molecule with its values, some of them ahead of it.

Experiments:
Assay in all cases: crystal structure; in meso (monoolein) crystals, 1.2 M sodium malonate pH 8.0, grown at 22 °C; pentameric form, space group C222_(1); data at 100 K and at room temperature
[1] = molecular target: KR2-D116N (Krokinobacter eikastus)
[2] = molecular target: KR2-H30A (Krokinobacter eikastus)
[3] = molecular target: the molecule itself

stoichiometry N [1]: 5
Molecule: KR2-D116N (natural protein)

stoichiometry N [2]: 5
Molecule: KR2-H30A (natural protein)

B1: light-driven sodium-pumping rhodopsin KR2 from Krokinobacter eikastus (natural protein)
chain: MTQELGNANFENFIGATEGFSEIAYQFTSHILTLGYAVMLAGLLYFILTIKNVDKKFQMSNILSAVVMVSAFLLLYAQAQNWTSSFTFNEEVGRYFLDPSGDLFNNGYRYLNWLIDVPMLLFQILFVVSLTTSKFSSVRNQFWFSGAMMIITGYIGQFYEVSNLTAFLVWGAISSAFFFHILWVMKKVINEGKEGISPAGQKILSNIWILFLISWTLYPGAYLMPYLTGVDGFLYSEDGVMARQLVYTIADVSSKVIYGVLLGNLAITLSKNKELVEANS
modifications: retinal covalently bound to the lysine residue of helix G via the Schiff base
notes: KR2, light-driven Na+-pumping rhodopsin of Krokinobacter eikastus; Pentamer in the crystals grown at pH 8.0; the construct is not described beyond 'KR2 expression plasmid'; also called KR2-WT; WT protein; source: E. coli SE1 (Staby Codon T7), purified (DDM solubilisation, Ni-NTA, SEC)
stoichiometry N [3]: 5
